Results from the domain aggregation screens of Martell et al. (2025).

Assay: soluble fraction after stress (log2 fold change); higher = more stays soluble; pooled small domains, quantitative proteomics
Conditions: stress: 75 degC
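Also: 20 min heating vs room temperature control held 20 min.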

Sequence	soluble fraction (log2)
HMEIFYGDDRVYTVSLHGQNNFPFRKKTSDFDYGFEDGTGDEEYLRVLDVTLSRLENEQFDLLFFQAGV	-0.068
HMEIFYSARAWAKLNDLVATRTYLQHLGAIAGRIGRSEGLSPDRIPDGRDGAVNGWPLWVWDRAYAEVS	-2.82
HMEIGLIRVDSRLIHGQVITKWLNYSKANVIVVVDDELSKDSFMSEIYKASAPNGIIVEILSIDDFMKNT	-0.0469
HMEIHIGSLIKEKMEERGLSVSDFAHALHYERTNIYKIFKRSSIDVDLLLRISEVLAYDFLREVYL	-2.4
HMEINKLIELIGGYKALSEVLNVSKSAISNYKKRGSLPSYAIPIIVKELKSKGISIDLSEFT	-0.837
HMEISAIIGNNLQQLRKEQGLSLDQLALKTGVSKAVLSQLENGKANPTINTIWKIATALHVTYSALLEPP	-1.15
HMEISEILNPPLVTAMAERYPEVDVSYYRDKYILYYESREHKITDHRRNFEKWLLVESQKEEN	-0.861
HMEISTENESFSNGLLEHPHYTRPPVWEDLKIPAVLMSGHHGKVAEWRKQQSEALTQERRPDLWEAFG	-0.14
HMEITSSNELKKMISNLINSENKNNPISDSNIVEKLKENDFLVARRTVAKYRKLLGIKNVNQRKE	-0.359
HMEIYELTDQEQRVLEFIGEGMTNREIAKNMFLAEKTVKNYVSSLLRKLGLERRTQAAAMAVRLSV	-0.119
HMEKAYVWTDTRTFDVQNYIGKKKSEVKNDQYGFEFLGEGDYVIDQLPRVGEQIEEGQKVKIMLGNQQEI	0.178
HMEKDKGTILKEARIKKGLTQEQLANNINYTRQYISKWENNISLPKDIQTLKKISNLLSIPLKELLPEDYL	-0.442
HMEKEFLFNGGKVVMNYEADRIQIMHDTKPGQDVITLMKKNGFKWSPFNKAWQRQITANAIYTTKHLINQ	-1.71
HMEKGIVSNKTDKGYGFIRSSTGESIFVHINNVGKEAYEQLAKGSRVLFDYEVTDRGKRATKVMLEPSES	-0.196
HMEKGLQYRRTDRAIMNAFIKLVNQGSFEKLTVQEILDEALVSRNTFYAHYRDIYDLMDALSN	-1.52
HMEKIDEDIMDVLKKKAEVSGISLGVLKSIYEKAVKQYKLGHEIGQVKEQYAMQKVNTHLLENK	0.461
HMEKIDYLSIGHRLRAYRIASSLKAEDVAESLGISRAAVYRLEKGEIVKIETLDNLARLLNTSLSSLLG	-3.37
HMEKIKNLTVTEFNLIANKNPSGSYDRITREALLHIIHKLESSYEAHTDLERKLFYKFRKAKFNAL	-2.87
HMEKIYLISDAAKQVNVEAHVLRYWEEELDIPAKRNELGHRYYTQEDIETFRKVKELKAQGIQLKGIKNIL	-0.225
HMEKLLTTRQSQIFELAKRKGYWNIPREISITQLAQLTGSSKSTISVMLHAIESKIVDTFYDEI	-3.05

Sequence	soluble fraction (log2)
HMEKLNERLLYLRKNANLTQQQLADKLHISNKTISQWETGRTLPDIVMLVRLAEIYDMKLDELLNQ	-1.1
HMEKMLENIDLKAAVEALPEREKKVILLRYYRGMTQDAAAKVMKVSQVQISRIEKRAIEILREKL	-2.54
HMEKNKERIAFLKKRLEMYYEAEEKILQGQSYTIGSRTLTRTSLANVQSKIKELESEISALETRGN	-1.5
HMEKRIIMLEELKKQVYEANMELPRRGLITYTWGNVSGIDRESGNFVIKPSGVDYDKLKPEDMVVMDL	0.249
HMEKRRQEIVELVKRESEISFAELKQHFPEVSEVTLRKDLKYLDSTLQIIRIHGGAKSLPAAI	-0.965
HMEKTTTLFDETTNPGIIYIGKAMPTGSAISEAAAVWAIKTIDTTTDTEIKWADGVTTYTKVWNNRASYSY	-0.872
HMEKVDAISQSILDVLKKNNGYLAVTDKSDPDEIYGLFQISKKTFKKAIGSLYRDRLISIEEEGIRLR	-0.496
HMEKVTAPMPGVINSIVKNVGDTVKRGDVVLILEAMKMENEIVAPKEGKIASINVAKGASVNAGDVLFSI	0.347
HMEKVTPEMIAEYNALAKKYNSNPEVVFKKKEIQRLKYIYSLMSEKQKETAEVFPNIPPPPPT	0.162
HMEKYNIIVDNEDNFRLDKIIALNMKDLSRTMIQEMINRGLVSVNGKITKASYKTKLNDQIEIMIED	-0.599
HMELAALKILNSPIGKIAIGTSENGLVKLDILTSGQTRAEFSDLPKAHKLALDAADQLAAYF	0.147
HMELADNFAKLILTARESKGWTQAQLGQRMAETINVIKSAESGKPPADSVIRKFEMILGIELM	-2.06
HMELDFLRLQIITGIHSGRLSNNEILMMYDTYSQKGGNSYVSRIVNDYVDENNIKEEGKRNARK	-1.5
HMELDREALSDGLRRLSQLLAEDDIESRTLFRELAPGLKEQLGDDAVEKLAGHISRYEFEQAGALLATSG	-0.0504
HMELIELTVTEEFEMARLDQFLAGHLTQSRTYIQKLIKAGQITINGNLITRVKVPVHYGDFILINIPDPE	-3.68
HMELKFIGEAVNNPKRPLIAILGGAKVSDKIGVIENLLTKADKILIGGAMMFTFLKAEGKNIGTSLVED	0.0754
HMELLEVSVIIREADSTGWSAARQGMEQAAADLGAELRFLTLSQSNSAEEQRSLLAREVEGGADAVVLV	-0.57
HMELNEMEAWSLVSKALRNGTYGAVEEFSRLPPTVQEAVGNPDNLRNWATSDYKAIETVIQSNFIKTY	-0.0842
HMELNILELKSKERKISLEDHLYIKSFNFDNETNEYFYRLAFNSSKDLKNFKATINNDKTISIINFEI	-3.67
